US20230391845A1, “GLP-1, GIP AND GLUCAGON RECEPTOR TRIPLE AGONISTS” (priority 2020, published 2023)
*1 amine or outer side, *2 acyl side, *3 side chain or, on linkers, in order; H or OH if unused. Where a SMILES comes first, the peptide text is derived from it. Where no end group is shown, it is not given here. Side-chain parts run from the residue outwards. [ ]: non-standard residue; d: D form. The star is where a group is joined. C20 diacid = O=C(O)CCCCCCCCCCCCCCCCCCC(=O)*; γGlu = O=C(O)[C@H](CCC(=O)[*:2])N[*:1]; εLys = N[C@@H](CCCCN[*:1])C(=O)[*:2]; Aib = CC(C)(N)C(=O)O

Columns and labels:
[1] = biological target: T1, human GLP-1 receptor (Homo sapiens, UniProt P43220); test: In vitro functional potency (CRE luciferase; whole cells), human GLP-1R; assay type: cell-based; conditions: BHK CRE luc2P hGLP-1R whole cells; Table 2; read-out: hGLP-1R CRE Luc EC50
T1 construct: expressed in transfected cells; host or cells: BHK cells (parent line BHKTS13) containing CRE luciferase

[2] = biological target: human glucagon-like peptide 1 receptor (human, UniProt P43220 24-463); test: cell-based or functional assay
[3] = biological target: T2, human glucose-dependent insulinotropic polypeptide receptor (human, UniProt P48546 22-466); test: cell-based or functional assay
T2 sequence (looked up): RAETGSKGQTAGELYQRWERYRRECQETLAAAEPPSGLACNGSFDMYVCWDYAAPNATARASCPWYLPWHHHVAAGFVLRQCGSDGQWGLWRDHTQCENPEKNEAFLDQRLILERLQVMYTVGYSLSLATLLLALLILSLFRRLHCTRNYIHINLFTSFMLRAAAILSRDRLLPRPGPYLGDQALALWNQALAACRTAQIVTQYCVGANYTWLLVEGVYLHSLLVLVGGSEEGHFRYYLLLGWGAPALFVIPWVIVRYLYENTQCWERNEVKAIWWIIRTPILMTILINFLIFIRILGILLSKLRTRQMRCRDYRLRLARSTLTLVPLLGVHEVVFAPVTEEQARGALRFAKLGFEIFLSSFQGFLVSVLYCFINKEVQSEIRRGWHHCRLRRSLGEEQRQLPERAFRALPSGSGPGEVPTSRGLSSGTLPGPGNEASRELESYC

[4] = biological target: human glucagon receptor (human, UniProt P47871 26-477); test: cell-based or functional assay
Chain of human glucagon receptor (P47871 26-477): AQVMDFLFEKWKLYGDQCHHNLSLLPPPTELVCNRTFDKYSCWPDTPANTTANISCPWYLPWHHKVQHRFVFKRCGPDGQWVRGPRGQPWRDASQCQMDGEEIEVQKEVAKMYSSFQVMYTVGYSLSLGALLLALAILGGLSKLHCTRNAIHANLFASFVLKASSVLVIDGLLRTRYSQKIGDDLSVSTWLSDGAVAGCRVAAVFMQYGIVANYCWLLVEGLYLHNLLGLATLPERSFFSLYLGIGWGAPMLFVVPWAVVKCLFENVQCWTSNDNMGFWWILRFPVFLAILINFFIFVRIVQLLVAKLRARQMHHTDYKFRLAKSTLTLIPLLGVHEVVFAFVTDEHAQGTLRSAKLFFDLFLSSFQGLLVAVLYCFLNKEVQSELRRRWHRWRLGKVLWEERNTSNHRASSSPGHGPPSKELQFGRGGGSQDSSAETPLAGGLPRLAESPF

T1 sequence (P43220 24-463): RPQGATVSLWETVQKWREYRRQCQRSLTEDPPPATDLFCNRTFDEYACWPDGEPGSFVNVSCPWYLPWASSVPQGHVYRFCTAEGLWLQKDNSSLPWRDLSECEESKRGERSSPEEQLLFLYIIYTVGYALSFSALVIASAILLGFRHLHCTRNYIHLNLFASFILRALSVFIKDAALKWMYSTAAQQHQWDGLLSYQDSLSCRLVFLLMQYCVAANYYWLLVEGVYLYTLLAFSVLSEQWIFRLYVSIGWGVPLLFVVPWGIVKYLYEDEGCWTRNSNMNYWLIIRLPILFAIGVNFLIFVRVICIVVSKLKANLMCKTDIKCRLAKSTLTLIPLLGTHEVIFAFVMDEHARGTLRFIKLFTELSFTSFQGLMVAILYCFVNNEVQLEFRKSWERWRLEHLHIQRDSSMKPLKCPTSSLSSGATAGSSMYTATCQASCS

Row | Molecule | EC50 [1] [pM] | hGLP-1R CRE Luc EC50 (pM) [2] [pM] | hGIPR CRE Luc EC50 (pM) [3] [pM] | hGcgR CRE Luc EC50 (pM) [4] [pM]
1 | CC[C@H](C)[C@H](NC(=O)[C@H](CO)NC(=O)[C@H](Cc1ccc(O)cc1)NC(=O)[C@H](CC(=O)O)NC(=O)[C@H](CO)NC(=O)[C@@H](NC(=O)[C@H](Cc1ccccc1)NC(=O)[C@@H](NC(=O)CNC(=O)[C@H](CCC(N)=O)NC(=O)C(C)(C)NC(=O)[C@@H](N)Cc1ccc(O)cc1)[C@@H](C)O)[C@@H](C)O)C(=O)N[C@@H](Cc1ccc(O)cc1)C(=O)N[C@@H](CC(C)C)C(=O)N[C@@H](CCC(=O)O)C(=O)N[C@@H](CCCCNC(=O)[C@@H](N)CCCCNC(=O)[C@@H](N)CCCCNC(=O)CC[C@H](NC(=O)CCCCCCCCCCCCCCCCCCC(=O)O)C(=O)O)C(=O)N[C@@H](CCC(N)=O)C(=O)N[C@@H](C)C(=O)N[C@@H](C)C(=O)NC(C)(C)C(=O)N[C@@H](CCC(=O)O)C(=O)N[C@@H](Cc1ccccc1)C(=O)N[C@H](C(=O)N[C@@H](CCC(N)=O)C(=O)N[C@@H](Cc1c[nH]c2ccccc12)C(=O)N[C@@H](CC(C)C)C(=O)N[C@@H](CC(C)C)C(=O)N[C@@H](CCC(=O)O)C(=O)NCC(=O)NCC(=O)N1CCC[C@H]1C(=O)N[C@@H](CO)C(=O)N[C@@H](CO)C(=O)NCC(=O)N[C@@H](C)C(=O)N1CCC[C@H]1C(=O)N1CCC[C@H]1C(=O)N1CCC[C@H]1C(=O)N[C@@H](CO)C(N)=O)C(C)C [Compound No. 17] (H-Y[Aib]QGTFTSDYSIYLEK([εLys-εLys-γGlu-C20 diacid])QAA[Aib]EFVQWLLEGGPSSGAPPPS-NH2) | 2.8 |  |  | 
2 | Y[Aib]QGTFTSDYSIYLEKQAA[Aib]EFVNWLLAGGPSSGAPPPS-NH2 (not fully specified (residue 16); printed as Y-Aib-QGTFTSDYSIYLE-K[2-[2-[2-[[2-[2-[2-[[(4S)-4-carboxy-4-(19-carboxynonadecanoylamino)butanoyl]amino]ethoxy]ethoxy]acetyl]amino]ethoxy]ethoxy]acetyl]-QAA-Aib-EFVNWLLAGGPSSGAPPPS-NH2) [Compound No. 15] |  | 1.4 | 4.8 | 267
3 | Y[Aib]QGTFTSDYSIYLDKQAA[Aib]KFVQWLLEGGPSSGAPPPS-NH2 (not fully specified (residue 21); printed as Y-Aib-QGTFTSDYSIYLDKQAA-Aib-K[2-[2-[2-[[2-[2-[2-11(4S)-4-carboxy-4-(19-carboxynonadecanoylamino)butanoyl]amino]ethoxy]ethoxy]acetyl]amino]ethoxy]ethoxy]acetyl]-FVQWLLEGGPSSGAPPPS-NH2) [Compound No. 7] |  | 8.2 | 65.5 | 61.3
4 | Y[Aib]QGTFTSDYSIYLEKQAA[Aib]EFVQWLLEGGPSSGAPPPS-NH2 (not fully specified (residue 16)) [Compound No. 17] |  | 2.8 | 7 | 86.6
5 | Y[Aib]QGTFTSDYSIYLDKQAA[Aib]KFVQWLLEGGPSSGAPPPS-NH2 (not fully specified (residue 21); printed as Y-Aib-QGTFTSDYSIYLDKQAA-Aib-K[2-[2-[2-[[2-[2-[2-[[(4S)-4-carboxy-4-[[4-[(19-carboxynonadecanoylamino)methyl]cyclohexanecarbonyl]amino]butanoyl]amino]ethoxy]ethoxy]acetyl]amino]ethoxy]ethoxy]acetyl]-FVQWLLEGGPSSGAPPPS-NH2) [Compound No. 8] |  | 12.1 | 45.5 | 91.9
6 | Y[Aib]QGTFTSDYSIYLDKQAA[Aib]EFVNWLLAGGPSSGAPPPS-NH2 (not fully specified (residue 16); printed as Y-Aib-QGTFTSDYSIYLD-K[2-[2-[2-[[2-[2-[2-[[(4S)-4-carboxy-4-[[4-[(19-carboxynonadecanoylamino) methyl]cyclohexanecarbonyl]amino]butanoyl]amino]ethoxy ]ethoxy]acetyl]amino]ethoxy]ethoxy]acetyl]-QAA-Aib-EFVNWLLAGGPSSGAPPPS-NH2) [Compound No. 6] |  | 5.1 | 7.7 | 216
7 | Y[Aib]QGTFTSDYSIYLEKQAA[Aib]EFVQWLLEGGPSSGAPPPS-NH2 (not fully specified (residue 16); printed as Y-Aib-QGTFTSDYSIYLE-K[2-[2-[2-[[2-[2-[2-[[(4S)-4-carboxy-4-[[4-[(19-carboxynonadecanoylamino)methyl]cyclohexanecarbonyl]amino]butanoyl]amino]ethoxy]ethoxy]acetyl]amino]ethoxy]ethoxy]acetyl]-QAA-Aib-EFVQWLLEGGPSSGAPPPS-NH2) [Compound No. 14] |  | 4.3 | 4.2 | 287
8 | Y[Aib]HGTFTSDYSIYLEKQAA[Aib]EFVQWLLEGGPSSGAPPPS-NH2 (not fully specified (residue 16); printed as Y-Aib-HGTFTSDYSIYLE-K[(2S)-2-amino-6-[[(2S)-2-amino-6-[[(4S)-4-carboxy-4-(19-carboxynonadecanoylamino)butanoyl]amino]hexanoyl]amino]hexanoyl]-QAA-Aib-EFVQWLLEGGPSSGAPPPS-NH2) [Compound No. 18] |  | 106 | 7.1 | 72.1
9 | Y[Aib]QGTFTSDYSIYLDKKAA[Aib]EFVNWLLAGGPSSGAPPPS-NH2 (not fully specified (residue 17); printed as Y-Aib-QGTFTSDYSIYLDK-K[2-[2-[2-[[2-[2-[2-[[(4S)-4-carboxy-4-(19-carboxynonadecanoylamino)butanoyl]amino]ethoxy]ethoxy]acetyl]amino]ethoxy]ethoxy]acetyl]-AA-Aib-EFVNWLLAGGPSSGAPPPS-NH2) [Compound No. 9] |  | 4.4 | 48.6 | 116
10 | Y[Aib]QGTFTSDYSIYLEKQAA[Aib]EFVNWLLAGGPSSGAPPPS-NH2 (not fully specified (residue 16); printed as Y-Aib-QGTFTSDYSIYLE-K[2-[2-[2-[[2-[2-[2-[[(4S)-4-carboxy-4-[[4-[(19-carboxynonadecanoylamino)methyl]cyclohexanecarbonyl]amino]butanoyl]amino]ethoxy]ethoxy]acetyl]amino]ethoxy]ethoxy]acetyl]-QAA-Aib-EFVNWLLAGGPSSGAPPPS-NH2) [Compound No. 12] |  | 2.4 | 1.8 | 239
11 | Y[Aib]QGTFTSDYSIYLEKQAA[Aib]EFVQWLLEGGPSSGAPPPS-NH2 (not fully specified (residue 16); printed as Y-Aib-QGTFTSDYSIYLE-K[2-[2-[2-[[2-[2-[2-[[(4S)-4-carboxy-4-(19-carboxynonadecanoylamino)butanoyl]amino]ethoxy]ethoxy]acetyl]amino]ethoxy]ethoxy]acetyl]-QAA-Aib-EFVQWLLEGGPSSGAPPPS-NH2) [Compound No. 16] |  | 3.1 | 11.4 | 185
12 | Y[Aib]QGTFTSDYSIYLDKKAA[Aib]EFVNWLLAGGPSSGAPPPS-NH2 (not fully specified (residue 17); printed as Y-Aib-QGTFTSDYSIYLDK-K[2-[2-[2-[[2-[2-[2-[[(4S)-4-carboxy-4-[[4-[(19-carboxynonadecanoylamino)methyl]cyclohexanecarbonyl]amino]butanoyl]amino]ethoxy]ethoxy]acetyl]amino]ethoxy]ethoxy]acetyl]-AA-Aib-EFVNWLLAGGPSSGAPPPS-NH2) [Compound No. 10] |  | 4.7 | 27.6 | 250
13 | Y[Aib]QGTFTSDYSIYLEKQAA[Aib]KFVQWLLEGGPSSGAPPPS-NH2 (not fully specified (residue 21)) [Compound No. 11] |  | 4.3 | 7.9 | 129
14 | Y[Aib]QGTFTSDYSIYLEKQAA[Aib]EFVNWLLAGGPSSGAPPPS-NH2 (not fully specified (residue 16); printed as Y-Aib-QGTFTSDYSIYLE-K[(2S)-2-amino-6-[[(2S)-2-amino-6-[[(4S)-4-carboxy-4-[[4-[(19-carboxynonadecanoylamino)methyl]cyclohexanecarbonyl]amino]butanoyl]amino]hexanoyl]amino]hexanoyl]-QAA-Aib-EFVNWLLAGGPSSGAPPPS-NH2) [Compound No. 13] |  | 2.8 | 2.1 | 157
